Blank lines part the entries; values can stand above or below the molecule they belong to.
Tests used:
[1] = target: soluble mouse EPCR (mouse) (UniProt Q64695); assay: isothermal titration calorimetry, soluble murine EPCR
[2] = target: mouse endothelial protein C receptor (mEPCR), full-length, on CHO-K1 cells (mouse) (UniProt Q64695); assay: saturation binding on CHO-K1 cells with mEPCR, 10 to 1000 nM ligand; bound material eluted and quantified by western blot; binding to CHO-K1 cells without mEPCR subtracted; fit of bound against ligand concentration
[3] = target: human plasma-derived protein C (hPC) (human, UniProt P04070 43-461); assay: CHO-K1 cells with or without murine EPCR, EDTA elution, western blot
Method: (§1) FIG. 2A: Scheme for determining and quantifying binding of proteins to surface exposed mouse EPCR (mEPCR). The protein whose mEPCR binding is under investigation is added onto CHO-K1 cells expressing mEPCR (mEPCR+ve) or not (mEPCR−ve). Binding is done in the presence of physiological concentration of calcium and magnesium (1.6 mM and 0.6 mM, respectively). Following washing, the bound material is eluted with EDTA (10 mM). The bound, unbound and a portion of total loaded material are then subjected to polyacrylamide gel electrophoresis, transferred to nitrocellulose and detected by western blotting using protein-specific antibodies. FIG. 2B: Human plasma-derived protein C (hPC) or murine PC (mPC) that are known ligands for murine EPCR, were incubated with CHO-KI cells with or without murine EPCR expression. […] A variant mFVIIa bearing part of the mPC Gla domain ([1-11 mPC)-mFVIIa) restored binding of this chimeric molecule to murine EPCR.

[4] = target: T1, mPC F4L (mouse, UniProt P33587 42-460); assay: HEK-293 supernatant on CHO-K1 cells with or without mEPCR, western blot
T1 construct: Tested as HEK-293 supernatant after transient expression; Position 4 is counted on the mature polypeptide; also called mouse PC Phe4 to Leu
T1 sequence (looked up): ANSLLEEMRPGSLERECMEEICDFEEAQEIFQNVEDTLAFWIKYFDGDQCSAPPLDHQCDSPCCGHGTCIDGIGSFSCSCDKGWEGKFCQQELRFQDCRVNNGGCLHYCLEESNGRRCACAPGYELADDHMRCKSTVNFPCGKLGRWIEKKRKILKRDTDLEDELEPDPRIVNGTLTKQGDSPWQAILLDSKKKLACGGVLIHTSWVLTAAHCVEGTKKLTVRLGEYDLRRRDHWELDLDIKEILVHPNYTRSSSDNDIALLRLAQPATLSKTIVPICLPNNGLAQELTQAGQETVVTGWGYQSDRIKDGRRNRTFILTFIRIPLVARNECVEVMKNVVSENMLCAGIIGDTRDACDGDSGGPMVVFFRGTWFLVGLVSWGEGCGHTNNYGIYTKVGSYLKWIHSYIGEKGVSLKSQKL
Method: as §1, with “The” for “FIG. 2A: Scheme for determining and quantifying binding of proteins to surface exposed mouse EPCR (mEPCR). The”
(§2) FIG. 4A: The Gla domain of the (1-11 mPC)-mFVIIa is shown. The blue box represents the first 11 amino acids of the mouse PC (mPC) Gla domain, whereas the red box represents the portion of the Gla domain of mouse FVIIa. […] Individual mutations were performed to change one amino acid in mFVIIa with the corresponding in (1-11 mPC)-mFVIIa. Following transient expression in HEK-293 cells, supernatant with each protein was incubated with CHO-K1 cells with or without expression of the mouse EPCR receptor. […] From top to bottom, sequences are SEQ ID NOs: 1-5. […]

[5] = target: T2, murine protein C (mPC) (mouse, UniProt P33587 42-460); assay: HEK-293 supernatant on CHO-K1 cells with or without mouse EPCR, western blot of the bound fraction
T2 construct: also called mouse PC; mouse protein C
T2 sequence (looked up): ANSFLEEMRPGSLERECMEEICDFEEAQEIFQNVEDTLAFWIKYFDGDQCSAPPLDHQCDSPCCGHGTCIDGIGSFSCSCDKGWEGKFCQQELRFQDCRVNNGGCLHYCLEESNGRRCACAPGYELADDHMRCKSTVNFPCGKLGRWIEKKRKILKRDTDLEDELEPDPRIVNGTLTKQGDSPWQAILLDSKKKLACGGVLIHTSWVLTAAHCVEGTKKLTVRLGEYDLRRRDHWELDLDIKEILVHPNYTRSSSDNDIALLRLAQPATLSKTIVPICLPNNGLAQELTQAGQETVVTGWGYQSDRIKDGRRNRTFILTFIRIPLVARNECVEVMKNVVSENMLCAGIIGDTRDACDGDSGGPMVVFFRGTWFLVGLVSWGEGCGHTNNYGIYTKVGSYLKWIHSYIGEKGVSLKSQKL
Method: as §1, with “The” for “FIG. 2A: Scheme for determining and quantifying binding of proteins to surface exposed mouse EPCR (mEPCR). The”
as §2

[6] = target: T3, mouse FVIIa (mFVIIa) (mouse, UniProt P70375 42-446); assay: saturation binding on CHO-K1 cells with mEPCR, 10 to 1000 nM ligand; bound material eluted and quantified by western blot; binding to CHO-K1 cells without mEPCR subtracted; fit of bound against ligand concentration
T3 construct: mature; Recombinant; Has a Gla domain; also called mF7a
T3 sequence (looked up): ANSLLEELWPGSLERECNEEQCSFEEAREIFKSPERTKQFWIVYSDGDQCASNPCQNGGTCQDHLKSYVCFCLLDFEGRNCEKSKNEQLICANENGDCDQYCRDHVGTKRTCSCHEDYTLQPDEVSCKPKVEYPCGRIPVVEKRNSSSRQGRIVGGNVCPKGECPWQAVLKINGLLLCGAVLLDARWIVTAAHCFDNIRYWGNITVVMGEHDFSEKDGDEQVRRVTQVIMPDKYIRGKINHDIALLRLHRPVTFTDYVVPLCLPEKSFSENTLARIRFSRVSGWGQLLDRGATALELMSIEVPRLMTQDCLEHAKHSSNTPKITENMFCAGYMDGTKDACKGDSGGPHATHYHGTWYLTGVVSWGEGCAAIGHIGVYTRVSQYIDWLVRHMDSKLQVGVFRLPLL
Method: as §1
FIG. 7. Increasing concentration of ligand (mFVIIa or [1-11 mPC]-mFVIIa) was incubated with CHO-K1 cells without mEPCR (−mEPCR) or with mEPCR (+mEPCR). The experimental strategy described in Example I was followed and bound material was visualized. Following subtraction of non-specific binding (material incubated on CHO-K1[-]mEPCR cells), corrected amount of bound material (nM per 10⁶ cells) was plotted vs. concentration of ligand (nM). […]

[7] = target: T4, Human FVIIa (NovoSeven) (human, UniProt P08709 61-466); assay: CHO-K1 cells expressing human EPCR, western blot of bound fraction
T4 construct: mature
T4 sequence (looked up): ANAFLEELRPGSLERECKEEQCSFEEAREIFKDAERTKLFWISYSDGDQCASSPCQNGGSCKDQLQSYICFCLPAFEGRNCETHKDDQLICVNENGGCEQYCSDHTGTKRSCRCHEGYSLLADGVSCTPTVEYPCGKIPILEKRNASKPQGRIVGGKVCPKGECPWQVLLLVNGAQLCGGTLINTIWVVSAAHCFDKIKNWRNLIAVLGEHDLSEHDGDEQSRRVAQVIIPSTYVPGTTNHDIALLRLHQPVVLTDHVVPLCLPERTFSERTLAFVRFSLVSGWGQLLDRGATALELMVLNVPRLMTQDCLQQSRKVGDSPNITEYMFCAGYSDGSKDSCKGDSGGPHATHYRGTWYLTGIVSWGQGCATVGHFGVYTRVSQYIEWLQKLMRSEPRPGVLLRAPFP
Method: as §1
(§3) FIG. 12. Binding of variants of human activated FVII with amino acid changes at position 8 (normally a Leucine). Conditioned medium from transient transfection was added on CHO-K1 cells expressing human EPCR, as described in FIG. 2. […] Following the wash of unbound material, the bound fraction was visualized by western blotting (shown in the bottom image). […] Human FVIIa (NovoSeven) is shown as a control for positive binding. […]

[8] = target: T5, wildtype human FVIIa (Leu at position 8), PACE/furin construct (human, UniProt P08709 61-466); assay: conditioned medium on CHO-K1 cells expressing human EPCR, western blot of bound fraction
T5 construct: mature; Tested as conditioned medium from transiently transfected HEK-293 cells
T5 sequence (looked up): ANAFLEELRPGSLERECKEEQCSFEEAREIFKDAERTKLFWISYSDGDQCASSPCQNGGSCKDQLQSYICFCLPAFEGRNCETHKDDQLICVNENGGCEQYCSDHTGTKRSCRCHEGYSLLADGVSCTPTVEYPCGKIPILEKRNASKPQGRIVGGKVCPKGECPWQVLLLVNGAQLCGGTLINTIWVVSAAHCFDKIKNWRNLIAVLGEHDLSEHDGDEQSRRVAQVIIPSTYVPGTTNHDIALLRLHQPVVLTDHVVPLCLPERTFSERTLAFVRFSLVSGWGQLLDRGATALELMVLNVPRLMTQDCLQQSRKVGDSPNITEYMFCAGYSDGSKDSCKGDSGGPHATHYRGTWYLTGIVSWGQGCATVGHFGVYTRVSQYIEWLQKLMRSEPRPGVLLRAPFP
Method: as §1, §3

Chain of human plasma-derived protein C (hPC) (P04070 43-461): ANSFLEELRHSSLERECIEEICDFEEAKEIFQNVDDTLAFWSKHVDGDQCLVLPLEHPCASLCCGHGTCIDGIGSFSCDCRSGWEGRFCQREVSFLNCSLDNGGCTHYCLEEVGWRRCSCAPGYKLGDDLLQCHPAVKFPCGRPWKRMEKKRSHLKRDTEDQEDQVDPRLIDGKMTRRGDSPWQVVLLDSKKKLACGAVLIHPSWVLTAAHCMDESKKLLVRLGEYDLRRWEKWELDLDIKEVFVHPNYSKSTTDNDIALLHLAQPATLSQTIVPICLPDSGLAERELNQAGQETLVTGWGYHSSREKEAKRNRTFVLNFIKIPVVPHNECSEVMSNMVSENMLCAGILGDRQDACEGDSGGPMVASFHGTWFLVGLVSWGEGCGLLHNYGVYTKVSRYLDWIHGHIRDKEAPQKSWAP

Kd [1]: 480 nM | Kd [2]: 340 nM
Molecule: (1-11 mPC)-mFVIIa (from UniProt P70375 42-446) (enzyme)

binding result [3]: binds | binding result [4]: no binding | binding result [5]: binds | Kd [6]: 10600 nM
B1: mouse endothelial protein C receptor (mEPCR), full-length, on CHO-K1 cells (receptor, UniProt Q64695 18-242, looked up)
chain: LCNSDGSQSLHMLQISYFQDNHHVRHQGNASLGKLLTHTLEGPSQNVTILQLQPWQDPESWERTESGLQIYLTQFESLVKLVYRERKENVFFPLTVSCSLGCELPEEEEEGSEPHVFFDVAVNGSAFVSFRPKTAVWVSGSQEPSKAANFTLKQLNAYNRTRYELQEFLQDTCVEFLENHITTQNMKGSQTGRSYTSLVLGILMGCFIIAGVAVGIFMCTSGRRC
notes: whole, on cells; also called murine EPCR; mouse EPCR

binding result [7]: binds | binding result [8]: binds
B2: human EPCR on CHO-K1 cells (receptor, UniProt Q9UNN8 18-238, looked up)
chain: SQDASDGLQRLHMLQISYFRDPYHVWYQGNASLGGHLTHVLEGPDTNTTIIQLQPLQEPESWARTQSGLQSYLLQFHGLVRLVHQERTLAFPLTIRCFLGCELPPEGSRAHVFFEVAVNGSSFVSFRPERALWQADTQVTSGVVTFTLQQLNAYNRTRYELREFLEDTCVQYVQKHISAENTKGSQTSRSYTSLVLGVLVGSFIIAGVAVGIFLCTGGRRC
notes: whole, on cells; also called hEPCR
